This note sets out measurements from PMC4787834.

The target of data set [1] is T1, MsmUdgX (Mycobacterium smegmatis mc2 155, UniProt A0QP43 1-209).
T1 sequence: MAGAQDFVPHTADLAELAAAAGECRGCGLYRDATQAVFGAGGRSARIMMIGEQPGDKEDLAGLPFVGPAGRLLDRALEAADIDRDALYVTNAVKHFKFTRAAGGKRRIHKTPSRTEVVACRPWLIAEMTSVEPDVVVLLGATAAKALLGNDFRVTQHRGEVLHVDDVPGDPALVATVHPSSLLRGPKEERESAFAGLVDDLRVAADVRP
As to the kind of experiment: 8 M urea-PAGE complex shift.

Data set [2] has as its target T1, MsmUdgX. As to the kind of experiment: SDS-PAGE complex shift.
The target in another data set is T2, MsmUdgX F4 (Mycobacterium smegmatis mc2 155, UniProt A0QP43 1-209, Q53A).
T2 sequence: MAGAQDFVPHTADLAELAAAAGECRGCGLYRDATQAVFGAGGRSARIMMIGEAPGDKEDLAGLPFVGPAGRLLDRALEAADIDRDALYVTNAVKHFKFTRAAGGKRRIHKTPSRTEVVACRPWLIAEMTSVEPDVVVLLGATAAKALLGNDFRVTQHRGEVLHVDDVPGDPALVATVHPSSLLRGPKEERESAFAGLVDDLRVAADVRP
As to the kind of experiment: 8 M urea-PAGE complex shift.

B1: SSU9:G (dsDNA)
DNA 1: CTCAAGTGUAGGCATGCAAGAGCT
DNA 2: CTTGCATGCCTGCACTTGAGTGCA
modifications: deoxyuridine at position 9 opposite G
As to B1, the binding result with MsmUdgX [1] is listed as “binds”.
Consider TUTT (ssDNA, deoxyuridine at position 2; 5' phosphate) [pTUTT], for which the binding result in the data set with MsmUdgX [2] is listed as “binds”.
Take CTCAAGTGUAGGCATGCAAGAGCT (ssDNA, deoxyuridine at position 9) [SSU9]: the binding result with MsmUdgX [1] and in the data set with MsmUdgX F4 was “binds” throughout.
